This assay has as its target T1, MtEccCb1-ATPase3 (ATPase3 domain of EccCb1 from Mycobacterium tuberculosis, residues 315-591) (Mycobacterium tuberculosis H37Rv, UniProt P9WNB1 315-591).
T1 sequence: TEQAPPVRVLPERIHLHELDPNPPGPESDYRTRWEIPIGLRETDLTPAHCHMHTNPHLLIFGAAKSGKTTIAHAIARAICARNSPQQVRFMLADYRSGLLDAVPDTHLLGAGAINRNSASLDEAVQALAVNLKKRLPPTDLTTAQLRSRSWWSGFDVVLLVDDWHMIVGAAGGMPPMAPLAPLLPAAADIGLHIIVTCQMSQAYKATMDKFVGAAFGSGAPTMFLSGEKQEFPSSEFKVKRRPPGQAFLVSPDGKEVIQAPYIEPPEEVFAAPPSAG
The experiment in a line: ITC. To be noted: both partners purified.

By Kd is commonly meant the constant that tells how readily two partners part at equilibrium. High values mean lower affinity, low ones higher affinity. For RADEEQQQALSSQMGF (source: synthetic peptide) [wild-type peptide corresponding to the C-terminal 16-residues of MtEsxB], the Kd was found to be 55 µM.

B1: MtEsxB (culture filtrate protein CFP-10 of Mycobacterium tuberculosis) (natural protein)
chain: MAEMKTDAATLAQEAGNFERISGDLKTQIDQVESTAGSLQGQWRGAAGTAAQAAVVRFQEAANKQKQELDEISTNIRQAGVQYSRADEEQQQALSSQMGF
For the molecule B1, the Kd came out at 34 µM.

The record behind these values is paper PMC6954902 (Protein & Cell, 2019).
